The record followed here is PMC2761088.

This test deals with human recombinant Akt1-GST (not treated with H2O2) (human) (UniProt P31749).
Sequence of UniProt P31749 (P31749 whole entry): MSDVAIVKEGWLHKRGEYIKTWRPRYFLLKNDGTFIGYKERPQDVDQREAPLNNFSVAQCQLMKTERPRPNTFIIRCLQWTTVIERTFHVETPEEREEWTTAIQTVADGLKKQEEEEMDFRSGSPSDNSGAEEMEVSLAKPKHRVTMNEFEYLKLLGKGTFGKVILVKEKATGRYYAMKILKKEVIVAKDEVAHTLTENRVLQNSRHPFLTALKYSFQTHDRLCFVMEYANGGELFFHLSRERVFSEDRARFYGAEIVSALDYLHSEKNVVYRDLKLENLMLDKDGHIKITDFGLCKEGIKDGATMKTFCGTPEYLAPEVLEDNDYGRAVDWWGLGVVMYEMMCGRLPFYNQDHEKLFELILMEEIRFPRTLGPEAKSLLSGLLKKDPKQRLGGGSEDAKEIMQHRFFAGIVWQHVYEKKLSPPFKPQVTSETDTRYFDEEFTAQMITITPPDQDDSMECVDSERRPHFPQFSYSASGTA

Regarding “PDK1 (PI3K-dependent kinase 1) of NIH/3T3 mitochondrial fractions (from UniProt Q9Z2A0 1-559) (enzyme)”, the Akt1 activity (formation of P-GSK-3 α/β in vitro) of Akt1 immunoprecipitated from mitochondrial extracts of NIH cells treated with low to high H2O2; decreased to 45% of control at high H2O2 was 150%.
